# Assay: yeast display, Sf9 membrane polyspecificity reagent, FACS + sequencing; frameworks hold sequencing errors
# How it was run: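 Galactose-induced (36–48 hours) yeast carrying a synthetic nanobody display library were exposed to 10% biotinylated, detergent-solubilized Sf9 membrane reagent at 4 °C for 1 hour. FACS followed streptavidin microbead enrichment, using low and high (top ~1%) gates for expression (anti-HA) and reagent binding (streptavidin). Colony PCR, MiSeq 2 × 250 sequencing and CDR-length filtering followed. Labels for polyreactivity reflect the gate of origin.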
row,Sequence,polyreactivity (PSR sort gate)
1,QVQLVESGGGLVQAGGSLRLSFAASGSTFNVHAMGGYRQAPGKERELVAAITSSGGSTNYADSVKGRFTISRDTAKNSVYLQLNSLKPEDTAVYYCAADAIYFSRLNLGYDYWGQGTQVTVSS,low polyreactivity
2,QVQLVESGGRLVQAGVSLRLSCAAGGRTFGINAMGWYRQAPGKERELVARIRKTVGSTYYADSVKGRFTISRDNAKNTVYLQMNSLKPEDTAVYYCNADYDAYPRYIRYGYWGQGTQVTVSS,high polyreactivity
3,QVQLVESGGGVVQAGGSLRLSCAASGSIFLYIYAKGWYRHAPGKERELVATINWDGGSTYYADSVKGRFTISRDNAKNTVYLQMNSLKPEDTAVYYCAADWYYSYYFYRFDYWGQGTQVTVSS,low polyreactivity
4,QVQLVESGGGLVQAGGSLRLSCAASGSIFHYYAMGWYRQAPGKERELVAAISSVGSTYYADSVKGRFTISRDNAKNTVYLQINSLKPEDTAVYYCAAEAYAKRYVDRYSWYYYWGQGTQVTVSS,high polyreactivity
5,QVQLVESGGGLVQAGGSLRLSCAASGFTRVVSTMGWYRQAPGKERELVATISYTDGSTYYADAVKGRFTISRDNAKNTDYLQMTSLKPEDTADYYCNASYPSSSYSYHVDYWGQGTQVTVSS,low polyreactivity
6,QVQLVESGGGLVQAGGSLRLSCASSGFTFYKYVMGGYRQDPGKEREMVAASSRSGGSTYYADSVKGRFTISRDNAKNTVYLQMNSLIPEDTAVYSCAKDSCGAPEGPYDYWGQGTQVTVSS,high polyreactivity
7,QVQLVESGGGLVQAGGSLRLSCAASGSTFYDYAMGWYRQAPGKESELVAAITSSGASTYYADSVKGRFTISRDNAKNTVYLQMNSLKPEDTAVYYCAARKVWRSIRVALDYWGQGTQVTVSS,high polyreactivity
8,QVQLVESGGGLVQAGGSLRLSCAASGITFGFNAMGWNRQAPGKERELVAAITWSVGRTYYADSVKGRFTISRDNAKNTVYLQMNSLKPEDTAVYYCAKDFEAGDDYFAYDYWGQGTQVTVSS,low polyreactivity
9,QVQLVESGGGLVQAGGSLRLSCAASGSTFLRNVMGWYRQAPGKERELVAAISSRGGSTHYADSVQGRFTISRDNAKHTVYLQMNSLKPEDTAVYYCNAERTAAQYVRAAYDYWGLGTQVTVSS,low polyreactivity
10,QVQLVESGGGLVQAGGSLRISCAASGSIFYRNVMGWYRQAPGKERELVAAISSSGGRTHYADSVKGRFTISRDNAKNTVYLQMNSLKPEDTAVYYCTALYAPQEYGRRFPNDYWGQGTQVTVSS,high polyreactivity
11,QVQLVESGGGLVQAGGSLRLSCAASGSTFRYYAMGWYRQAPGKERELVAAISYRGVRTNYADSVKGRFTISRDHAKNTVYLQMNSLKPEDTAVYYCADRFGRSSSGSPYDRYGYWGQGTQVTVSS,high polyreactivity
12,QVQLVESGGGLVQAGGSLRLSCAASGSISKINAMGWYRQAPGKERELVAAINTGDSTYYADSVKGRFTISRDNAKNTVYLKMNSLKPVDSAVYYCAAEGSPTGYDYWGQGTQVTVTS,low polyreactivity
13,QVQLVESGGGLVQAGGSLRLSCAASGLTFDNYAMGWYRQAPGKERELVAAISTSSGRTYYADSVKGRFTISRDNAKNTVYLQMNSLKPEDTAVYYCAAEVAFIYSYYEVYKYEYWGQGTQVTVSS,high polyreactivity
14,QVQLVESGGGLVQAGGSLRLSCADSGSIFRIYAMGWYSQAPGKERELVAAITGRGGSTYYADSVKGRFTISRDNAKNTVYLQMNSLKPEDTAVYYCAAEERYAYRYDYWGQGTQVTVSS,high polyreactivity
15,QVQLVESGGRLVHAGGSLRLSCAASGSTFERNLMGWYSEAPGKERELVAAISRVSSTNYADSVKGRFTISRDNAKNTVYLQMNSVKPEDTAVYSCAADRAGSIMNYWGQGTQVTVSS,low polyreactivity
16,QVQLVESGGGLVQAGGSLRLSCAASGITFSPYAMGWYRQAPGKERELVAAISSRGGSTYYADSVKGRFTISRDNAKNTVYLQMNSLKPEDTAVYYCNALTFVRYLFHYTYWGQGTQVTVSS,high polyreactivity
17,QVQLVESGGGLVQAGGSLRLSCAASGRTFASYAMGWYRKAPGKETELVATISSGDSTYADSVKGRFTISRDNAKITVYLQRNRLKPEDTAVYYCAAASDLPGTCGYDYWGQGTQVTVSS,low polyreactivity
18,QVQLVESGGGLVQAGGSLRLSCAASGITFLVNAMGWYRQAPGKERELVATITSGDSTSYADSVKGRFTISRDNAKNTVYLQMNSLKPEDTAVYFCAARPGYWAQYYPVGSRNYYWGQGTQVTVSS,low polyreactivity
19,QVQLVESGGGLVQAGGSLRLSCAASGRIFSLNTLGWYRQAPGKERELVAAINRGGRSYYADSVKGRFTISRDNAKITVNLQMNSLKPEDTAVYYCAAEVVRQGSYRYGYWGQGTQVTVSS,high polyreactivity
20,QVQLVESGGGLDQAGGSLRLSCAASGRTFYTYVMGWYRQAPGKEREFLAAITYSGGSTYYADSVKGRFTISRDNAKNTVYLQMNSLKTEDSAVYYCNAEWTYSEWYGQYLEFDYWGQGTQVTVSS,high polyreactivity
21,QVQLEESGGGLVQAGGSLRLSCAASGNIFFVYDMGWYRQAPGKERELVAAISWSGGSTYADSVKGRFTISRDNAKNTVYLQMNSLKPEDTAVYYCAAARYAYKHAFEYWGQGTQVTVSS,low polyreactivity

row,Sequence,polyreactivity (PSR sort gate)
1,QVQLVESGGGLVQAGGRLRLRCAASGFIFSIYTMGWYRQAPGKERELVAAISWSGGSKYYADSVKGRFTISRDNAKNTVYLQMNSLKPEDTAVYYCNRVQFSPVYRFREYDYWGQGTQVTVSS,high polyreactivity
2,QVQLVESGGGLVQAGGSLRLSCAASGRIFQKYAMGWYRQAPGKERELVAVITGRGGSTYYADSVKGRFTISRDNAKNTVFLLMNSLKKEDTAVYYCASVPGYWGQGTQVTVSS,high polyreactivity
3,QVQLVESGGGLVQAGGSLRLSCAASGFIFDNYAMGWYRQAPGKERELVAAISRSGGSTYYADSVKGRFTISRDNAKNTVYLQMNSLKPEDTAVYYCAARGKFGIVRYDYWGQGTQVTVSS,high polyreactivity
4,PVQLVESGGGLVHAGGRHRLSSAASGSIFNYYPMGWYRKAPGTERELVATISAGGSTNYADSVTGRFTISRDNAKNTVYLHKNRLKPEDTAVYYCNRARYYLTSYTYLTSYDYWGQGTQGTVSS,high polyreactivity
5,QVQLVESGGGLVQAGGSLRLSCAASGFIFTTYAMGWSRQAPGKEWELVAAISTSGGRTYYADSVKGRFTISRDNAKNTVYLQMNSLKPEDTAVYYCNTYSYYSYDWGQGTQVTVSS,high polyreactivity
6,QVQLVESAGGLVQAGGILRLSCAASGRIFTRNAMGWYRQAPGKERELVAAISSSSGSKYYADSVKGRFTISRDNAKNTVYLQMNSLKPEDTAVYYCAARSYYYSWGYDHWGQGTQVTVSS,high polyreactivity
7,QVQLVESGGGLVQAGGSLRLSCAASGLTVVIYAMGWYRKAPGKERELVARITCSGGSTYYADSVKGRFTISRDNAKNTVYLQMISLQPEVTAVYYCAARRFYYYNAVYDYWGQGTQVTVSS,low polyreactivity
8,QVQLVESGGGLVQAGGSLRLSCAASGFTFSDNAMGWYRQAPGKERELVAAISRSGGRTYYADSVKGRFTISRDNAKNTVYLQMNSLKPEDTAVYYCAAYQYGMDYWGQGTQVTVSS,high polyreactivity
9,QVQLVESGGGLDQAGGSLRLSCAASGRTFQGYAMGWYRQAPGKERELVAAISRSGGRTYYADSVKGRFTISRDNAKNTVYLQMNSLKPEATAVYFCATDAFRDYGYWGQGTQVTLSS,high polyreactivity
10,QVQLVESGGGLVQAGGSLRLSCDASGLNMYKNGMGWYRQAPGKERELVAVISRSGCRTYYADSVKGRFTISRDTAKNTVYVQMNSLKPEDTAVYYCAARQYGPRYTYYYWGQGTQVTVSS,high polyreactivity
11,QVQLVESGGGLVQAGGSLRLSCAASGRTFWRNAMGWYRQAPGKERELVAAISSSGDRTYYADSVKGRFTISRDNAKNTVYLQMNSLKPEDTAVYYCAARTFWGAYDYWGQGTQVTVSS,high polyreactivity
12,QVQLVESGGGLVQAGGSLRLSCAASGRIFRHNAMGWYRQAPGKERELVAAISGGGTTYYADSVKGRFTISRDNAKNTVYLQMNSVKPEDTAVYYCAARRRGSVGVGYAYPYNYWGQGTQVTVSS,high polyreactivity
13,QVQLVESGGGLVQAGGSLRLSCAASALTFGSNAMGWYRQAPGKERELVAAISRSGGTTYYADSVKGRFTISRDNAKNTVYLQMNSLKPEDTAVYYCATRPYSPWRHYYWGQGTQVTVSS,high polyreactivity
14,QVQLVESGGGLVQAGGSLRLSCAASGITFKRYAMGWYRQAPGKERELVAAINGSGGRTYYADSVKGRFTISRDNAKNTVYLQMNSLKPEDTAVYYCNARHIYPSHYDYWGQGTQVTVSS,high polyreactivity
15,QVQLVESGGGLVQAGGSLRLSCAASGSTFAKYAMGWYRQAPGKERELVASIRLSGGSTYYADSVKGRFTISRDNAKNPDYLQMNSLNPEDTAVYYFNKQFATFYYGFDYYYWGQGSQVTVSS,low polyreactivity
16,QVQLVESGGGLVQAGGSLRLSCAASGFTFWYYVMGWYRQAPGKERELVAAITSSGDSTYYADSVKGRFTISRDNAKNTVYLQMNSLKPEDTAVYYCAAQRYPFERDYWGQCTQVTVSS,high polyreactivity
17,QVQLVESGGGLVQAGGSLRLSCAASGITFGQNAMGWYRQAPGKEREYVATITASGSTYYADSVKGRFTISRDNAKNTVYLQMNSLKPEDTAVYYCATRYAGEYYWDYDYWGQGTQVTVSS,high polyreactivity
18,QVQIVESGGGLVQAGGSLRLTCAASGSIFPDYAMGWYRQAPGKERELVASISWDGGSTYYADSVKGRFTISRDNAKNTVYLQMNSLKPEDTAVYYCATELLVGGGFTVDYWGQGTQVTVSS,low polyreactivity
19,QVQLVESGGGLVQAGGSLRLSCAASGSTFVANVMGWYRQAPGKERELVAAINTNGGSTYYADSVKGRFTISRDNAKNTVYLQMNSLKPEDTAVYYCNKAWFRYWYGYWGQGTQVTVSS,low polyreactivity
20,QVQLVESGGGLVQEGGSLRLSCAASGRNFDVYAMGWYRQAPGKERELVAAITWDGGSTYYADSVKGRFTISRDNAKNSVYLQMNSEKPEDKAVYYCAAEPVYTQRKGYDYWGQGTQVTVSS,low polyreactivity
